Measured values from the Immune Epitope Database (IEDB).
Each block holds one sequence with its values, some of them ahead of it.

Key:
HLA-C*15:02 = experiment: IEDB peptide-MHC binding, purified MHC/direct/fluorescence; filed as Kd, often an IC50 or EC50 that approximates it; ≥ and ≤ were set here for values at or beyond the usual limits of such assays
HLA-A*02:01 [1] = experiment: IEDB peptide-MHC binding, purified MHC/competitive/fluorescence; filed as Kd, often an IC50 or EC50 that approximates it; ≥ and ≤ were set here for values at or beyond the usual limits of such assays
HLA-B*15:42 = experiment: as above
HLA-B*45:06 = experiment: as above
HLA-B*83:01 = experiment: as above
HLA-C*14:02 = experiment: as above; conditions: source organism: Yellow fever virus
HLA-A*02:03 = experiment: IEDB peptide-MHC binding, purified MHC/direct/fluorescence; filed as Kd, often an IC50 or EC50 that approximates it; ≥ and ≤ were set here for values at or beyond the usual limits of such assays
HLA-A*02:12 = experiment: as above
HLA-A*02:16 = experiment: as above
HLA-A*02:19 = experiment: as above
HLA-A*03:01 = experiment: as above
HLA-A*69:01 [2] = experiment: as above
HLA-B*15:17 = experiment: as above
HLA-B*27:03 = experiment: as above
HLA-B*39:01 = experiment: as above; conditions: source organism: Encephalitozoon cuniculi GB-M1
HLA-B*46:01 = experiment: as above
HLA-A*02:01 [3] = experiment: as above; conditions: source organism: Bacillus anthracis str. 'Ames Ancestor'
HLA-A*02:11 = experiment: as above; conditions: source organism: Bacillus anthracis str. 'Ames Ancestor'
HLA-A*24:03 = experiment: as above; conditions: source organism: Bacillus anthracis str. 'Ames Ancestor'
HLA-A*26:01 = experiment: as above; conditions: source organism: Bacillus anthracis str. 'Ames Ancestor'
HLA-A*29:02 = experiment: as above; conditions: source organism: Bacillus anthracis str. 'Ames Ancestor'
HLA-B*15:01 = experiment: as above; conditions: source organism: Bacillus anthracis str. 'Ames Ancestor'
HLA-B*18:01 = experiment: as above; conditions: source organism: Bacillus anthracis str. 'Ames Ancestor'
HLA-B*51:01 = experiment: as above; conditions: source organism: Bacillus anthracis str. 'Ames Ancestor'
HLA-B*57:01 = experiment: as above; conditions: source organism: Bacillus anthracis str. 'Ames Ancestor'
HLA-C*05:01 = experiment: as above; conditions: source organism: human gammaherpesvirus 4
HLA-A*69:01 [4] = experiment: IEDB peptide-MHC binding, purified MHC/competitive/fluorescence; filed as Kd, often an IC50 or EC50 that approximates it; ≥ and ≤ were set here for values at or beyond the usual limits of such assays; conditions: source organism: human gammaherpesvirus 4
HLA-C*04:01 = experiment: as above; conditions: source organism: human gammaherpesvirus 4
[5] = source organism: Camelpox virus CMS
[6] = source organism: Yellow fever virus
[7] = source organism: Encephalitozoon cuniculi GB-M1
[8] = source organism: Bacillus anthracis str. 'Ames Ancestor'
[9] = source organism: human gammaherpesvirus 4

Sequence: IVIEAIHTV
Kd (HLA-C*15:02; [5]): 0.341 µM | Kd (HLA-A*02:01 [1]; [5]): 0.0021 µM

Sequence: MWHVTRGAF
Kd (HLA-C*15:02; [6]): ≥ 20 µM | Kd (HLA-B*15:42; [6]): ≥ 5 µM | Kd (HLA-B*45:06; [6]): ≥ 5 µM | Kd (HLA-B*83:01; [6]): ≥ 5 µM | Kd (HLA-C*14:02): 0.0028 µM

Kd (HLA-A*02:03; [7]): ≥ 20 µM | Kd (HLA-A*02:12; [7]): ≥ 20 µM | Kd (HLA-A*02:16; [7]): ≥ 20 µM | Kd (HLA-A*02:19; [7]): ≥ 20 µM | Kd (HLA-A*03:01; [7]): ≥ 20 µM | Kd (HLA-A*69:01 [2]; [7]): ≥ 20 µM | Kd (HLA-B*15:17; [7]): 0.18 µM | Kd (HLA-B*27:03; [7]): ≥ 20 µM | Kd (HLA-B*39:01): ≥ 20 µM | Kd (HLA-B*46:01; [7]): ≥ 20 µM
Sequence: RNMSRIFPY

Sequence: TKAGMAQYL
Kd (HLA-A*02:01 [3]): ≥ 20 µM | Kd (HLA-A*02:03; [8]): ≥ 20 µM | Kd (HLA-A*02:11): ≥ 20 µM | Kd (HLA-A*02:12; [8]): ≥ 20 µM | Kd (HLA-A*02:16; [8]): ≥ 20 µM | Kd (HLA-A*02:19; [8]): ≥ 20 µM | Kd (HLA-A*03:01; [8]): ≥ 20 µM | Kd (HLA-A*24:03): ≥ 20 µM | Kd (HLA-A*26:01): ≥ 20 µM | Kd (HLA-A*29:02): ≥ 20 µM | Kd (HLA-A*69:01 [2]; [8]): ≥ 20 µM | Kd (HLA-B*15:01): ≥ 20 µM | Kd (HLA-B*15:17; [8]): ≥ 20 µM | Kd (HLA-B*18:01): ≥ 20 µM | Kd (HLA-B*27:03; [8]): ≥ 20 µM | Kd (HLA-B*46:01; [8]): ≥ 20 µM | Kd (HLA-B*51:01): ≥ 20 µM | Kd (HLA-B*57:01): ≥ 20 µM

Sequence: FTASVSTVV
Kd (HLA-C*05:01): 3.95 µM | Kd (HLA-A*02:01 [1]; [9]): 0.0027 µM | Kd (HLA-A*69:01 [4]): ≤ 0.0001 µM | Kd (HLA-B*15:42; [9]): ≥ 5 µM | Kd (HLA-B*45:06; [9]): ≥ 5 µM | Kd (HLA-B*83:01; [9]): ≥ 5 µM | Kd (HLA-C*04:01): ≥ 5 µM
